# Experimental data published in the DeepSol protein solubility set.
# Test: soluble on expression in E. coli; label from the status in PepcDB or PDB records
row,Sequence,soluble on expression in E. coli
1,MAAKNAFYAQSGGVTAVINASAAGVIEAARKQSGKIGRIYAGRNGIIGALTEDLIDTGQESDAAISALRYTPSGAFGSCRYKLKSLEQNRREYERLIEVFKAHDIGYFFYNGGGDSADTCLKVSQLSGTLGYPIQAIHVPKTVDNDLPITDCCPGFGSVAKYIAVSTLEASFDVASMSATSTKVFVLEVMGRHAGWIAAAGGLASSPEREIPVVILFPEISFDKQKFLAKVDSCVKKFGYCSVVVSEGVKGDDGKFLSDQGVRDAFGHAQLGGVAPVVASMVKEGLGLKYHWGVADYLQRAARHIASKTDVEQAYAMGQAAVEFAVQGHNSVMPTIERISARPYQWKVGMAQLSQVANVEKMMPENFITEDGFGITDLCREYLAPLIEGEDYPPYKDGLPDYVRLKNVAVPKKLSGFTLLEHHHHHH,not soluble
2,NPQTSVSNTGKEADATKNQTSKADQVSAPYEGTGKTSKSLYGGQTELEKNIQTLQPSSIIGTDERTRISSTTSFPYRATVQLSIKYPNTSSTYGCTGFLVNPNTVVTAGHCVYSQDHGWASTITAAPGRNGSSYPYGTYSGTMFYSVKGWTESKDTNYDYGAIKLNGSPGNTVGWYGYRTTNSSSPVGLSSSVTGFPCDKTFGTMWSDTKPIRSAETYKLTYTTDTYGCQSGSPVYRNYSDTGQTAIAIHTNGGSSYNLGTRVTNDVFNNIQYWANQ,not soluble
3,MDNKIMLRNRYISKIQNKLRDLTDSINFLSEIDQAILNQTAGAGPGAAGPGAAPDRSSTINLQALREKLTTLNTDDGPTRTAIRDKTAAIQTSIRDINLKLEELMKNINTSAGKLADAVSAIPTPTDDLGAAGAAGAAGAAGAAAGAGAGAA,not soluble
4,MGSDKIHHHHHHMELKLERHPANPILEPSPYFLWESRFVFNPAVVYDGELFHLLYRAQGEDMVSRIGYAVSTDGIHFNKFEKPVFAPKSDDELYGVEDPRITKIGDEYYMVYTAYSPRGVRIAMASTKNFITWKRYGVVIPEVDNKDAALFPEKINGKYVMFHRIPPDMWLAFSDDLVHWDNFVKIASPRPGMWDDLKIGVGAPPIKTEYGWLVLYHGVQNTGTSRPIYRLGFMLLDLEDPTKVIKRSKEPILEPEEDWEKFGGVPNVVFSDAMIEYNGYYYVYYGAADNCIALATIPVEKVMKWCRE,not soluble
5,ILLLLLSLFLGLSSQAQEDSLQANRYVMRATLYGAGFTNILDTYLSPMEYTGPEIRILRESMRMTKLMNGNVSVQSLFQANLSLTENKAETSNEMAGMVNWNYALHYQFRLTENLKILAGPMLDLNGGFIYNMRNSNNPAQAKAYVNLAASGMVIYRFHIGNYPLIARYQANLPVMGIMFSPEYGQSYYEIFSLKNGGKNVLFTSLHNQPSLRQLVTLDFPIRSVNMRFGYLCDIQQAKVNNLKSHIWSHAFMIGFVKNFYLLKGKNKVAMPSRVSPY,not soluble
6,MPLTKRAVSPVNLSRGTIPSTIHRDELQCTANGTIANLVRQLSSLSKHAENIFGEIYHDAMIINHKSNTLQQRIDRLHKKVEDLDSNSDQATLNEANMRKAFKSSMLVDQHILDRSTLPTALTEIYAKCDPPPDLDALNPYRDSEIPALSLYTNPSFFFDLWKKETLKEVAERPRRVKSPNDGSKSPKKRRKQPGQGPLGTTAYNDMQHRNRQISGSRINQQNEVFSFPEEYQAPQALGLQLNFKNQHPSNMVAPIGMTMHHHPQQNVHPSQQRGGAPAAARGSPNVKRPTEAPPPVNLDHLPPPDMSILSIDDDDDDLPPPPPPLLMNTSIVHQLPAEAPSTIQFVEPSAAPPTNIPPPPPPPPPMVISSAAASFAAPAPKPSADGEAAGTNSPVAPKQPDARSDLLAQIQSGIKLKKVQRAEAEAAENAALEANNVAAILKRRMDQVMGNDDSSSEEGADDDEWDD,not soluble
7,MFGIDGLEFLVILLVLIVVVGPKDLPKMLKTMARAIAYVRSTANEFRHQFDDAIKQAELDDLQKTLSDMNDFNPDKKLTGILNPMQDIRGDILNNFDVNTTHHKLEKDQENFECNENKTNEDLDVPVDAHSSGSVFVTSKDKESAS,not soluble
8,MKEEKLVTLAIHSYEKAQILKSLLETEGIEAYLHNVNQIQPVISAGVRVRIKETDLPRALSIIEDNKWDQEDPKKRAKNTEEYVLIPVDFSEYTMKICELGFNFAARRGLRVVLMHVYISPFFSTPLTVGDTAVFQLSNEVSLRKEYQRVQR,not soluble
9,MSLAPRDLIDIDRIFMEPAVADYPRGREILSRFPNAERIAVPSHWNIPELHGNEGSVEDWVRIKRSTLVLGVKKGLAMRPNGRSAHFIAPSTSNGCAMACAYCYVPRRKGFSNPISLFVNVEAVSAAIARHAAKQGPLPEPDQIDEAAWVYDLGENGDLSVDAMICDTVRDLVGLFRTLPNAKGSFATKAVNRDLLAYDPQGRTRIRFSLMPAPIARVVDVRTAPIRERIAAIDDFVAAGYEVHVNFSPVILYEGWEADWAELFAEIDGSISDAAKAQLKCEIIMLTHNAGLHEVNLGWHPKAEALLWRPDIQETKRSEGGGDNLRYRTGEGHHHHHH,not soluble
10,SNAYRGPEAFLKLPKDLKDREALQDIMQDIGNSDDILAAVVLSATPGAVEAFRKNGETIRITGDGLKAAHRFLSNDPKIGEKRIRPGALIRVKKTEKGSWQIVQLP,soluble
11,MSLLTKSAENKRNRKDDSMRPGQQLTLSIDHQTDFGYFLTDGEDTILLHNSEMTEDIEDRDEVEVFIYVDQQERLAATMKIPIISADEYGWVEVVDKVEDMGVFVDVGLSKDALVATEHLPPYEDVWPQKGDKLYCMLKVTNRGRMFAKPAPEDIISELFTDASEDLMNKELTGTVYRLIASGSFVITDDGIRCFIHPSERKEEPRLGSRVTGRVIQVKEDGSVNLSLLPRKQDAMSVDAECILTYMRMRNGAMPYSDKSQPDDIRERFNMSKAAFKRALGHLMKNGKVYQENGWTYEKKEGGSHHHHHH,soluble
12,ARKCSLTGKWTNNLGSIMTIRAVNSRGEFTGTYLTAVADNPGNITLSPLLGIQHKRASQPTFGFTVHWNFSESTTVFTGQCFIDRNGKEVLKTMWLLRSSVNDISYDWIATRVGYNNFTRLSTVEE,soluble
13,SNAMADWVTGKVTKVQNWTDALFSLTVHAPINPFTAGQFTKLGLEIDGERVQRAYSYVNAPDNPNLEFYLVTVPQGKLSPRLAALKPGDEVQVVSDASGFFVLDEVPDCETLWMLATGTAIGPYLSILQYGQDVARFKNLVLVHAARFAADLSYLPLMLELQQRYEGKLRIQTVVSRENVPGSLTGRVPALIENGELEKAVGLPMDKETSHVMLCGNPQMVRDTQQLLKETRQMTKHLRRRPGHMTAEHYW,soluble
14,IASPQAGMAALTGTLAGTRQGMISFTQQNEQEADRIGIQVLQRAGFDPQAMPSFLEKLLDQARYSTRPPEILLTHPLPESRLADARNRANQMRPVVVQSSADFYFAKARALGMYNSGRNQLTSDLLDQWSKGNVHQQHAAQYGRALQAMEASKYDEARKTLQPLLSAEPNNAWYLDLATDIDLGQKRANDAINRLKNARDLRVNPVLQLNLANAYLQGGQPKAAETILNRYTFSHKDDGNGWDLLAQAEAALNNRDQELAARAESYALAGRLDQAISLLSSASAQAKLGCQQQARYDARIDQLRQLQERFKPYTK,not soluble
15,GMKLYKLLILDIDGTLRDEVYGIPESAKHAIRLCQKNHCSVVICTGRSMGTIQDDVLSLGVDGYIAGGGNYIQYHGELLYNQSFNQRLIKEVVCLLKKREVAFSIESQEKVFMNQKAKEIFETMNQLKGTNSCINKQHIQEKITYENNIEEYKSQDIHKICLWSNEKVFDEVKDILQDKMELAQRDISSQYYEIIQKDFHKGKAIKRLQERLGVTQKETICFGDGQNDIVMFQASDVTIAMKNSHQQLKDIATSICEDIFDNGIYKELKRRNII,soluble
16,MIGKKILGERYVTVSEAAEIMYNRAQIGELSYEQGCALDYLQKFAKLDKEEAKKLVEELISLGIDEKTAVKIADILPEDLDDLRAIYYKRELPENAEEILEIVRKYI,soluble
17,AIAADKEAAFDDAVEERVINEEYKIWKKNTPFLYDLVMTHALEWPSLTAQWLPDVTRPDGKDFSIHRLVLGTHTSDEQNHLVIASVQLPNDDAQFDASHYDSEKGEFGGFGSVSGKIEIEIKINHEGEVNRARYMPQNPCIIATKTPSCDVLVFDYTKHPSKPDPSGECNPDLRLRGHQKEGYGLSWNPNLSGNLLSASDDHTICLWDISAVPKEGKVVDAKTIFTGHTAVVEDVSWHLLHESLFGSVADDQKLMIWDTRSNNTSKPSHSVDAHTAEVNCLSFNPYSEFILATGSADKTVALWDLRNLKLKLHSFESHKDEIFQVQWSPHNETILASSGTDRRLNVWDLSKIGEEQSPEDAEDGPPELLFIHGGHTAKISDFSWNPNEPWVICSVSEDNIMQVWQMAENIYNDEDTEGSVDPEGQGS,soluble
18,MRREIRRICGFDVSDRWINLFRKKHGIRYFSGRRHADKKDKTIILSALDVTKMKTTNFLKKRRILRTSRKEYADVDLQVNKEIVRRQNKGERLTNPWIKEYAQYVAYQLHPEIPDIAKFFDANWLYRFKRRYCVELKVALNDFLYDLNSIFQPRSPEENTRSTPQTTSNEDIKSSATSMEVVTSPNYLFPHHYFNLFDQNGCGASIVKQEPTREN,not soluble
19,MGSDKIHHHHHHMCRWLAYTGNPIHLETVLFRAKHSLIDQSLHSELGATTTNGDGFGIGWYGDPDELPFRYRSVHPAWNDRNLREAARAIRSRMFVAHIRAATDTPVQETNCHPFRHGRWLFAHNGLIRDFHKLRRDLTMKVDPALFPTLEGSTDSELMFRLALTYGLEQTPLPALERMVGMVEETAARYRVDEPLNMTICATDGDRIIAVRYSSERQSRSLFHTTSFKHLHELYPHNPRIAEAGDDAFMVVSEPLVDLRGAWEEVAESTAIVAQGADVQQRPFNPRHT,not soluble
20,MPSFDIVSEITLHEVRNAVENANRVLSTRYDFRGVEAVIELNEKNETIKITTESDFQLEQLIEILIGSCIKRGIEHSSLDIPAESEHHGKLYSKEIKLKQGIETEMAKKITKLVKDSKIKVQTQIQGEQVRVTGKSRDDLQAVIQLVKSAELGQPFQFNNFRD,soluble
21,MLTAATEVLAAADGPGSAESAWAWRDAPIATLVQRIQQLQNERAQAFRRLDQAHRQYLLSGQHYDFPSYRSVVHEVTQAFAAASREVLAVEAELAGPRAQPVLARHVRSLQELEQTRLATVALLQVMGTPGVSEQDPEKLHQLKIKVIKTMEAIGEVLQELRFDAESAE,soluble
22,MRALRLLTRQEYQNTVNDLLGLSENLVHLLPEENRVDGFDNNVATNLVTSIRLEAFLTQAEALAAKAVQQNWNALLPCTQQDLEHHHHHH,not soluble
23,VFDRPLFALDFSKCTEKIIQTTELFKELVKEAILLHVVDYGKESEVEENIQKATQKLKEIAEKLDFPSEVVVHSGDASKEILMTAPSVGATLIVIGKRGRNILQLLMGSTAEIVIRNSVLPVLIVP,not soluble
24,MVGAYSYSEGLETLVENGTITSQSTLQQWLEAELSYGAIRLEAAVMVRAYQAATMDDMETLCYWNLWLSAARETQELRNSSWQMGRSLMQLLGKIQPEILPLANAVGNPCNYAIAFGIASAHWQINIQAALLAYLHSWATNLITAGVKLIPLGQTAGQELLLQLQPLISHATVEIMSLKDDELSCCSWGLSLASMQHETQYTRLFRSLEHHHHHH,not soluble
